Results as given in patent publication US7910544B2, “Conformationally constrained parthyroid hormone (PTH) analogs” (The General Hospital Corporation, priority 2003, dated 2011).
Non-standard residues stand in square brackets, D forms with d. No end group written: not given here. Bpa = N[C@@H](Cc1ccc(C(=O)c2ccccc2)cc1)C(=O)O; hArg = N=C(N)NCCCC[C@H](N)C(=O)O; Nle = CCCC[C@H](N)C(=O)O; Deg = CCC(N)(CC)C(=O)O

Legend:
P1R-delNt [1] = molecular target: T1, P1R-delNt (Homo sapiens, UniProt Q03431); test: cAMP antagonism assay in COS-7 cells transfected with P1R-delNt; type: cell-based; conditions: for N versus J domain selectivity of P1R antagonist: concluded from cAMP antagonism on wild-type P1R and P1R-delNt in COS-7 cells; for antagonism of agonist-induced cAMP response: P1R-delNt, antagonist 1×10−5 M
T1 construct: expressed in transfected cells; host or cells: COS-7
T1 sequence (Q03431 with tags, fused parts or gaps limits assumed): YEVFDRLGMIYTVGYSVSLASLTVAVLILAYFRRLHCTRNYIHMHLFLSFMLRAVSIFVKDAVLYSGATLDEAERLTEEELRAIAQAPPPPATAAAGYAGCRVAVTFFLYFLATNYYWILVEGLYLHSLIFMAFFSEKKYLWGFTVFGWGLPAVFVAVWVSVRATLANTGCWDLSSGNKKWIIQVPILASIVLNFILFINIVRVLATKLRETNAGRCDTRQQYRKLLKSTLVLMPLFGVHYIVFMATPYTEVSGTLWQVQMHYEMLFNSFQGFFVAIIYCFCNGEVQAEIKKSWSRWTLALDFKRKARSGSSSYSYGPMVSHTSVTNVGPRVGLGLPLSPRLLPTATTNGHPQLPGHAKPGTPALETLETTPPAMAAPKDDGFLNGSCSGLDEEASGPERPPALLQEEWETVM
Method: (§1) FIG. 8. “N” versus “J” Domain selectivity of P1R Antagonists in COS-7 Cells. cAMP antagonism assays were performed in COS-7 cells transfect with the wild-type P1R (A), or a P1R derivative (P1R-delNt) having most (residues 24-181) of the P1R N domain deleted (B). Cells were treated with the agonist [Aib^1,3,Tyr^34]hpTH(1-34)NH2 ([Aib^1,3]PTH(1-34)), which utilizes both N and J domains for affinity/potency, or with [Ac5c^1, Aib^3, Gln^10,Har^11,Ala^12,Trp^14]PTH(1-14)NH2 ([Ac5c^1]PTH(1-14)), which uses only the J domain for affinity/potency, at the concentrations indicated in the key, so as to elicit half-maximum cAMP responses in the absence of antagonist (none). The analogs PTHrP(5-36) and Deg^1,3,Bpa^2-PTH(1-21) were added at 1×10−5 M, as indicated.
(§2) Cell Culture. The cell line HKRK-B28 (Shimizu, el al., Biochem. 41: 13224-33 (2002)) was derived from the porcine kidney cell line, LLC-PK1 by stable transfection with plasmid DNA encoding the opossum/rat hybrid P1R and expresses ˜280,000 receptors per cell. The HKRK-B7 cell line was derived from the LLC-PK1 cell line by stable transfection with DNA encoding human P1R. HKRK-B7 cells expresses approximately 950,000 human P1R per cell (Takasu, H., et al., J. Bone Miner. Res. 14: 11-20 (1999)). These cells, as well as COS-7 cells and SaOS-2-B10 cells, are cultured at […] in T-75 flasks ([…]) in Dulbecco's modified Eagle's medium (DMEM) supplemented with fetal bovine serum (10%), penicillin G (20 units/ml), streptomycin sulfate (20 μg/ml) and amphotericin B (0.05 μg/ml) in a humidified atmosphere containing 5% Co2. Stock solutions of EGTA/trypsin and antibiotics are from GIBCO; fetal bovine serum is from Hyclone Laboratories (Logan, Utah). COS-7 cells sub-cultured in 24-well plates are transfected with plasmid DNA (200 ng per well) encoding the wild-type human P1R or truncated human P1R deleted for residues (24-181) (Shimizu, M., et al., J. Biol. Chem. 275: 21836-21843 (2000)) that is purified by cesium chloride/ethidium bromide density gradient centrifugation, and FuGENE 6 transfection reagent (Roche Indianapolis Ind.) according to the manufacturer's recommended procedure. All cells, in 24-well plates, are treated with fresh media and shifted to 33° C. for 12 to 24 h prior to assay.
(§3) cAMP Stimulation. Stimulation of cells with peptide analogs is performed in 24-well plates. Cells are rinsed with 0.5 mL of binding buffer (50 mM Tris-HCl, 100 mM NaCl, 5 mM KCl, 2 mM CaCl2, 5% heat-inactivated horse serum, 0.5% fetal bovine serum, adjusted to pH 7.5 with HCl) and treated with 200 μL of cAMP assay buffer (Delbecco's modified Eagle's medium containing 2 mM 3-isobutyl-1-methylxanthine, 1 mg/mL bovine serum albumin, 35 mM Hepes-NaOH, pH 7.4) and 100 μL of binding buffer containing varying amounts of peptide analog (final volume=300 μL). The medium is removed after incubation for 30 to 60 minutes at room temperature, and the cells are frozen on dry ice, lysed with 0.5 mL 50 mM HCl, and refrozen ([…]). The cAMP content of the diluted lysate is determined by radioimmunoassay. The EC50 response values are calculated using nonlinear regression (see below).
“N” versus “J” domain selectivity of P1R antagonists was investigated in COS-7 Cells (FIG. 8). cAMP antagonism assays were performed in COS-7 cells transfect with the wild-type P1R (A), or a P1R derivative (P1R-delNt) having most (residues 24-181) of the P1R N domain deleted (B). Cells were treated with the agonist [Aib^1,3,Tyr^34]hPTH(1-34)NH2 ([Aib^1,3]PTH(1-34)), which utilizes both N and J domains for affinity/potency, or with [Ac5c^1,Aib^3,Gln^10,Har^11,Ala^12,Trp^14]PTH(1-14)NH2 ([Ac5c^1]PTH(1-14)), which uses only the J domain for affinity/potency, at the concentrations indicated in the key, so as to elicit half-maximum cAMP responses in the absence of antagonist (none). The analogs PTHrP(5-36) and Deg^1,3,Bpa^2-PTH(1-21) were added at 1×10−5 M, as indicated.

P1R-delNt [2] = molecular target: T1, P1R-delNt; test: Competitive antagonism on P1R-delNt (shift of agonist dose-response curve, cAMP); type: cell-based; conditions: for shift of agonist dose-response curve: agonist [Aib1,3,Tyr34]hPTH(1-34)NH2, antagonist 1×10−5 M, COS-7/P1R-delNt; for mechanism of inhibition: from shift of [Aib1,3,Tyr34]hPTH(1-34)NH2 dose-response curve
From the text: FIG. 10. Competitive Antagonism on P1R-delNt. COS-7 cells transfected with P1R-delNt were stimulated with varying concentrations of the agonist [Aib^1,3,Tyr^34]hPTH(1-34)NH2 ([Aib^1,3]PTH(1-34)), either in the absence of antagonist or in the presence of an antagonist, [Deg^1,3,Bpa2,M]PTH(1-14) or [Deg^1,3,Bpa^2,M]PTH(1-21) each at 1×10−5 M, as indicated in the figure key.
as §2, §3
The pharmacologic mechanism by which [Deg^1,3,BPA^2,Nle^8,Gln^10,Har^11,Ala^12,Trp^14,Arg^19,Tyr^21]PTH(1-21)NH2 and [Deg^1,3,Bpa^2,Gln^10,Har^11,Ala^12,Trp^14]PTH(1-14)NH2 function as antagonists was investigated in FIG. 10. In this study, the effects of the antagonists at […], on the dose-response curve elicited by the agonist [Aib^1,3,Tyr^34]hPTH(1-34)NH2 were examined in […].

wild-type P1R = molecular target: T2, wild-type P1R (Homo sapiens, UniProt Q03431); test: cAMP antagonism assay in COS-7 cells transfected with wild-type P1R; type: cell-based; conditions: WT receptor; agonist [Ac5c1,Aib3,Gln10,Har11,Ala12,Trp14]PTH(1-14)NH2; antagonist 1×10−5 M; listed as Deg^1,3,Bpa^2-PTH(1-21)
T2 construct: expressed in transfected cells; host or cells: COS-7
T2 sequence (Q03431 27-593): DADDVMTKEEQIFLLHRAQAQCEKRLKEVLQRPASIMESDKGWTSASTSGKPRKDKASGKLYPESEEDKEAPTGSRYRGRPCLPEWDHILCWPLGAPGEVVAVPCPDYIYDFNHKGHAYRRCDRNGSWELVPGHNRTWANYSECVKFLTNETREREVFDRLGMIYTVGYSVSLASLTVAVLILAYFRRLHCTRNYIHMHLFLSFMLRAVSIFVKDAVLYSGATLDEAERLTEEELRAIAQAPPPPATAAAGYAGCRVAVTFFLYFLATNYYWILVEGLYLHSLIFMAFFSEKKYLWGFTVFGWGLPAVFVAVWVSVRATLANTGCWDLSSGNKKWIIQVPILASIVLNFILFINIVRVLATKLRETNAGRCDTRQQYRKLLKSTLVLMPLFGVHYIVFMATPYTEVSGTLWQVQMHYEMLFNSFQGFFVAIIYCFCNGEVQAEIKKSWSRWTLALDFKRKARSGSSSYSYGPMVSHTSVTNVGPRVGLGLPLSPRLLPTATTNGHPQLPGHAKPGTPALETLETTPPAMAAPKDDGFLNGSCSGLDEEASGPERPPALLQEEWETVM
Method: as §1
Cell Culture. The cell line HKRK-B28 (Shimizu, el al., Biochem. 41: 13224-33 (2002)) was derived from the porcine kidney cell line, LLC-PK1 by stable transfection with plasmid DNA encoding the opossum/rat hybrid P1R and expresses ˜280,000 receptors per cell. The HKRK-B7 cell line was derived from the LLC-PK1 cell line by stable transfection with DNA encoding human P1R. […]
cAMP Stimulation. […] The cAMP content of the diluted lysate is determined by radioimmunoassay. The EC50 response values are calculated using nonlinear regression (see below). […]

P1R = molecular target: T3, P1R (Homo sapiens, UniProt Q03431); conditions: literature (Luck et al. 1999); read-out: cAMP-signaling potency EC50; cited from earlier work
T3 sequence (Q03431 27-593): T2 sequence (Q03431 27-593)

Row | Substance | N versus J domain selectivity of P1R antagonist (P1R-delNt [1]) | shift of agonist dose-response curve (P1R-delNt [2]) | shift of agonist dose-response curve (P1R-delNt [2]; listed as [Deg^1,3,Bpa2,M]PTH(1-14)) | mechanism of inhibition (P1R-delNt [2]) | antagonism of agonist-induced cAMP response (P1R-delNt [1]; agonist [Ac5c1,Aib3,Gln10,Har11,Ala12,Trp14]PTH(1-14)NH2) | antagonism of agonist-induced cAMP response (P1R-delNt [1]; agonist [Ac5c1,Aib3,Gln10,Har11,Ala12,Trp14]PTH(1-14)NH2, listed as Deg^1,3,Bpa^2-PTH(1-21)) | antagonism of agonist-induced cAMP response (P1R-delNt [1]; agonist [Aib1,3,Tyr34]hPTH(1-34)NH2) | antagonism of agonist-induced cAMP response (P1R-delNt [1]; agonist [Aib1,3,Tyr34]hPTH(1-34)NH2, listed as Deg^1,3,Bpa^2-PTH(1-21)) | N versus J domain selectivity of P1R antagonist (P1R-delNt [1]; listed as Deg^1,3,Bpa^2-PTH(1-21)) | antagonism of agonist-induced cAMP response (wild-type P1R) | shift of agonist dose-response curve (P1R-delNt [2]; listed as [Deg^1,3,Bpa^2,M]PTH(1-21)) | EC50 (P1R)
1 | DegBpaDegGluIleGlnLeuMetHisGlnHarAlaLysTrpNH2 ([Deg][Bpa][Deg]EIQLMHQ[hArg]AKW-NH2; N-terminus assumed; SMILES CC[C@H](C)[C@H](NC(=O)[C@H](CCC(=O)O)NC(=O)C(CC)(CC)NC(=O)[C@H](Cc1ccc(C(=O)c2ccccc2)cc1)NC(=O)C(N)(CC)CC)C(=O)N[C@@H](CCC(N)=O)C(=O)N[C@@H](CC(C)C)C(=O)N[C@@H](CCSC)C(=O)N[C@@H](Cc1c[nH]cn1)C(=O)N[C@@H](CCC(N)=O)C(=O)N[C@@H](CCCCNC(=N)N)C(=O)N[C@@H](C)C(=O)N[C@@H](CCCCN)C(=O)N[C@@H](Cc1c[nH]c2ccccc12)C(N)=O) | behaved similarly in these assays to Deg^1,3,Bpa^2-PTH(1-21) | rightward and parallel shift in the agonist response curve | parallel, right-ward shift in the agonist dose-response curve | competitive |  |  |  |  |  |  |  | 
2 | DegBpaDegGluIleGlnLeuNleHisGlnHarAlaLysTrpLeuAlaSerValArgArgTyrNH2 ([Deg][Bpa][Deg]EIQL[Nle]HQ[hArg]AKWLASVRRY-NH2; N-terminus assumed; SMILES CCCC[C@H](NC(=O)[C@H](CC(C)C)NC(=O)[C@H](CCC(N)=O)NC(=O)[C@@H](NC(=O)[C@H](CCC(=O)O)NC(=O)C(CC)(CC)NC(=O)[C@H](Cc1ccc(C(=O)c2ccccc2)cc1)NC(=O)C(N)(CC)CC)[C@@H](C)CC)C(=O)N[C@@H](Cc1c[nH]cn1)C(=O)N[C@@H](CCC(N)=O)C(=O)N[C@@H](CCCCNC(=N)N)C(=O)N[C@@H](C)C(=O)N[C@@H](CCCCN)C(=O)N[C@@H](Cc1c[nH]c2ccccc12)C(=O)N[C@@H](CC(C)C)C(=O)N[C@@H](C)C(=O)N[C@@H](CO)C(=O)N[C@H](C(=O)N[C@@H](CCCNC(=N)N)C(=O)N[C@@H](CCCNC(=N)N)C(=O)N[C@@H](Cc1ccc(O)cc1)C(N)=O)C(C)C) | potent J-domain selective antagonist | rightward and parallel shift in the agonist response curve |  | competitive | strongly inhibited | antagonizes either agonist | strongly inhibited | antagonizes either agonist | J domain-selective antagonist | antagonizes PTH(1- 14), more effectively than does PTHrP(5-36) | parallel, right-ward shift in the agonist dose-response curve | 
3 | PTH(1-34): first 34 amino acids of parathyroid hormone |  |  |  |  |  |  |  |  |  |  |  | ~2 nM
